From US7183376

Molecular target: human CD28 receptor on T cells (human, UniProt P10747 19-220)
Test: cell-based or functional assay

T cell proliferation (3H-thymidine), transfected 293 HEK cells: ~3 fold
B1: Round 2 CD28BP-15 (ligand)
chain: ITPKSVTKRVKETVMLSCDYNTSTEELTSLRIYWQKDSKMVLAILPGKVQVWPEYKNRTITDMNDNPRIVILALRPSDSGTYTCVIQKPVLKGAYKLEHLASVRLMIRADFPVPTINDLGNPSPNIRRLICSTSGGFPRPHLYWLENGEELNATNTTVSQDPGTELYMISSELDFNVTNNHSIVCLIKYGELSVSQIFPWSKPKQEPPIDQLPFWVIIPVSGALVLTAVVLYCLACRHVARWKRTRRNEETVGTERLSPIYLGSAQSSG
